We go through 37 sequences from the supplement of paper PMC10567573.

The series can be described thus: protein stability index of a GFP-peptide fusion (GPS, HEK-293T) (PSI 1-6); higher = more stable. Conditions: c terminus: a fixed tail appended.

± gives the standard deviation.
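Note: 24-mer peptide tiles fused after GFP, lentivirally expressed, FACS-sorted into six equal bins by GFP/DsRed ratio, decoded by Illumina sequencing, PSI is the read-weighted mean bin number.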

LEAGASAASTAAALENLQVEASCS [TRIM39]: the protein stability index was 5.36 ± 0.2 (treatment: DMSO) and 5.3 ± 0.37 (treatment: MLN4924 1 uM, 8 h). The corresponding values for LEEENKERAKREMVMYSITVAFWL [MFF] are 2.29 ± 0.55 and 2.82 ± 0.46. For LEELGTLNVFQTVSRMRTQRAFSI [PTPN9], in that order: 2.48 ± 0.12 and 2.23 ± 0.17. For LEKSNKNFSKKIQQIHVVSQFKIL [VPS39], the protein stability index came to 2.17 ± 0.24 (treatment: DMSO) and 2.07 ± 0.26 (treatment: MLN4924 1 uM, 8 h). The corresponding values for LELVKYLLAAGANVHATTATGDTA [ANKRD17] are 2.16 ± 0.25 and 2.08 ± 0.4.

Take LERVRVSCTIIFLASIFQLAMWTT [TMEM175]: the protein stability index was 3.24 ± 0.4 (treatment: DMSO) and 3.29 ± 0.23 (treatment: MLN4924 1 uM, 8 h). In turn, LFAFMLVYPKEFHLNRGNHEDHMV [PPEF2] yielded a protein stability index (treatment: DMSO) of 3.03 ± 1 and a protein stability index (treatment: MLN4924 1 uM, 8 h) of 2.32 ± 0.35. The corresponding values for LFGFYFCMPLVCTAIFYTLMTCEM [EDNRA] are 3.11 ± 0.33 and 3.14 ± 0.42. LFVGVDCFLLTAMAYDQFLAICRP [OR3A1]: the protein stability index runs as follows: (treatment: DMSO) 3.63 ± 0.6; (treatment: MLN4924 1 uM, 8 h) 3.13 ± 0.071. For LGAMMLLESPIDPQPLSFKEPPLL [APMAP], in that order: 2.41 ± 0.11 and 2.5 ± 0.45. In the case of LGDTQFCFRFRQSSGRRVSLHCLL [DENND6A], the protein stability index runs as follows: (treatment: DMSO) 2.89 ± 0.48; (treatment: MLN4924 1 uM, 8 h) 2.65 ± 0.59. The corresponding values for LGIPKNPWLWSEQQVCQWLLWATN [ETS2] are 2.29 ± 0.3 and 2.33 ± 0.15. For LGNVAEVKELRPQLMTSQFISVFS [ZER1], in that order: 2.55 ± 0.3 and 2.34 ± 0.28. The corresponding values for LGPQVSLDPMKNVTCENGLPAVVS [LOXL2] are 4.3 ± 0.97 and 4.12 ± 0.25.

Take LGRTGLYPSYKVREKIETVKYPTY [FUT8]: the protein stability index was determined as 2.42 ± 0.12 (treatment: DMSO) and 2.51 ± 0.14 (treatment: MLN4924 1 uM, 8 h). The corresponding values for LHARLRELLCELGRPSMVWLSANP [PRAME] are 2.65 ± 0.57 and 2.39 ± 0.42.

On to LHLASDFFLKHPDKDVRLLVACCL [PDS5B], for which the protein stability index is, setting by setting: (treatment: DMSO) 2.23 ± 0.79; (treatment: MLN4924 1 uM, 8 h) 2.39 ± 0.43. For LHLGLPWRMLRPQLVNSSADNMLE [PPEF2], in that order: 2.87 ± 0.31 and 2.67 ± 0.48. Consider LHVWQITWAMRQRGTHAVVGVATA [SPSB1], for which the protein stability index (treatment: DMSO) was found to be 2.58 ± 0.31 and the protein stability index (treatment: MLN4924 1 uM, 8 h) worked out at 2.51 ± 0.64.

LICLKKNHEEEVNTLRSQLGDRLN [KRT34]: the protein stability index turned out to be 3.33 ± 0.21 (treatment: DMSO) and 3.45 ± 0.37 (treatment: MLN4924 1 uM, 8 h). Turning to LIDQRYFQVLCSINSIIHNPRAPV [CEP70], the protein stability index (treatment: MLN4924 1 uM, 8 h) was determined as 2.07 ± 0.12. For the sequence LIYTVMLAFRSGSDNLLVILKRKW [SLC35F2], the protein stability index was found to be 2.3 ± 0.91 (treatment: DMSO) and 1.84 ± 0.51 (treatment: MLN4924 1 uM, 8 h). LKDIFMFITRQLKGLEDTKSPQFN [PDS5B]: the protein stability index stood at 2.11 ± 0.058 (treatment: DMSO) and 2.54 ± 0.31 (treatment: MLN4924 1 uM, 8 h).

Take LKDIHDDQDYLHSLGKARTAQVQK [FLOT1]: the protein stability index reads like this: (treatment: DMSO) 4.67 ± 0.18; (treatment: MLN4924 1 uM, 8 h) 4.56 ± 0.24.

For LKGSRVSILFGHENRVSTLRVSPD [GNB5], the protein stability index is 2.96 ± 0.15 (treatment: DMSO) and 3.02 ± 0.29 (treatment: MLN4924 1 uM, 8 h). For the sequence LKGYLYAVGGRNAAGELPTVECYN [KLHL13], the protein stability index turned out to be 2.37 ± 0.51 (treatment: DMSO) and 2.67 ± 0.34 (treatment: MLN4924 1 uM, 8 h). Regarding LKKEPGHPWKWSNGKEFNNWFNVT [CD69], the protein stability index is, setting by setting: (treatment: DMSO) 2.14 ± 0.13; (treatment: MLN4924 1 uM, 8 h) 2.23 ± 0.25. On to LKNKKGAKQQKFIKAVTHQVKFGQ [ZC3H15], for which the protein stability index came to 3.14 ± 0.57 (treatment: DMSO) and 3.25 ± 0.39 (treatment: MLN4924 1 uM, 8 h). The corresponding values for LKYLHEQEILHRDLKLGNFFINEA [PLK2] are 1.85 ± 0.18 and 1.97 ± 0.3. For LLEQSLEEFAQAESKDQGKTLALA [ALDH8A1], in that order: 4.68 ± 0.33 and 4.68 ± 0.14. For LLKYRAREPVTKAEMLGSVVGNWQ [MAGEA3], in that order: 2.39 ± 0.2 and 2.51 ± 0.28.

For LLLYRIRKDVGCNRFEVTLEKSNK [VPS39], the protein stability index runs as follows: (treatment: DMSO) 2.21 ± 0.35; (treatment: MLN4924 1 uM, 8 h) 2.14 ± 0.3. For LLSCGKILTGCKNMLFQQNKDGIG [ACSBG2], in that order: 2.13 ± 0.42 and 2.23 ± 0.17. For LLSRLEEEEQDILQRLRENAAHLG [TRIM39], in that order: 3.63 ± 0.16 and 3.71 ± 0.33. The corresponding values for LLSRNQLSTAASLGPSGLQNHGQH [LCOR] are 3.28 ± 0.095 and 3.46 ± 0.23.

LMDGGDLPSVTDIRRPRLYLLQWL [PLK2]: the protein stability index came out at 2.48 ± 0.17 (treatment: DMSO) and 2.5 ± 0.27 (treatment: MLN4924 1 uM, 8 h). As to LMSESEWRNLGVQQSQGWVHYMIH [CKS1B], the protein stability index (treatment: DMSO) amounted to 2.42 ± 0.35 and the protein stability index (treatment: MLN4924 1 uM, 8 h) was determined as 2.05 ± 0.31.
